B1: AB-009237 (antibody, V domains shown)
VH: QVQLLQSGAEVKKPGASVSVSCKASGFTFTSYYFHWVRQAPGQGLEWMGIVSPAGGSTNYAQKFQGRVTMTRDTSTSTVHMELRNVRYDDTAVFYCARSVYCSSPSCPHGMDVWGPGTMVTVSS
VL: DIQVTQSPSTLSASVGDRVTITCRASQSILTYLAWYQQKPGKAPNLLIYKASNLQSGVPSRFSGSGSGTEFTLTISSLQPDDFATYHCQQYKSYPFSFGQGTKLAIK
notes: human IgG1
B2: AB-009202 (antibody, V domains shown)
VH: QVQLVESGGGVVQPGRSLRLSCAASGFTFSSYGMHWVRQAPGKGLEWVAVIWYDGSNKYYADSVKGRFTISRDNSKNTLYLQMNSLRAEDTAVYYCARDGGPEYYFDYWGQGTLVTVSS
VL: SYELTQPPSVSVSPGQTARITCSGDALPKQYAYWYQQKPGQAPVLVIYKDSERPSGIPERFSGSSSGTTVTLTISGVQAEDEADYYCQSADSSGTYNVVFGGGTKLTVL
notes: human IgG1
B3: AB-009239 (antibody, V domains shown)
VH: QVHLEESGGGVVQPGRSLRLSCAASGFTFSGYAMHWVRQAPGKGLAWVAVISYDGTNKYYTDSVKGRFSISRDNSNNTLYLQMNSLRTEDTALYYCARALTGYYGQFDFDSWGQGTLVTVSS
VL: DVVMTQSPLSLPVTLGQPASISCRSSQSLVHSDGHTYLNWIQQRPGQSPRRLIYKVSNRDSGVPDRFSGSGSGTDFTLKISRVEADDVGIYYCVQGTHWPPWTFGQGTKVEIK
notes: human IgG1
B4: AB-009078 (antibody, V domains shown)
VH: QITLKESGPTLVKPTQTLTLTCTFSGFSLSTSGVGVGWIRQPPGKALEWLALIYWDDDKRYSPSLKSRLTITKDTSKNQVVLTMTNMDPVDTATYYCAHRPGDFWSGYYRYWGQGTLVTVSS
VL: not shown
notes: human IgG1
B5: AB-009244 (antibody, V domains shown)
VH: EVQLVESGGGLVQPGGSLRLSCAASGFAFNTYGINWVRQAPGKGLEWVSFISSRSTTIHYADSVRGRFTISRDNAKNSLYLQMNNLRDEDTAVYYCARDLLIWFGETGAFDIWGQGTMVTVSS
VL: EVVMTQSPATLSVSSGERVTLSCRASQSVSNNLAWYQQKPGQAPRLLIYGASTRATGFPARFSGSGSGTEFTLTISSLQSEDFAVYYCQQYNIWPPGTFGQGTKLEIK
notes: human IgG1
B6: AB-009231 (antibody, V domains shown)
VH: EVQLVESGGGLVQPGGSLRLSCAASGFTFSSYWMSWVRQAPGKGLEWVANIKQDGSEKYYVDSVKGRFTISRDNAKNSLYLQMNSLRAEDTAVYYCARVSMRFLEWSFYYYYYMDVWGKGTTVTVSS
VL: SSELTQDPAVSVALGQTVRITCQGDSLRSYYASWYQQKPGQAPVLVIYGKNNRPSGIPDRFSGSSSGNTASLTITGAQAEDEADYYCNSRDSSGNHLGVVFGGGTKLTVL
notes: human IgG1
B7: AB-009174 (antibody, V domains shown)
VH: QVQLQQWGAGLLKPSETLSLTCAVYGESFSGYYWNWIRQPPGKGLEWIGEIDQSGSTNYNPSLKSRVTISVDTSKNQFSLKLTSVTAADTAVYYCARVSGRMQLWLRAGYMDVWDKGTTVTVSS
VL: QSALTQPASVSGSPGQSITISCTGTSSDVGRYNYVSWYQQHPGKAPKLMIYEVSNRPSGVSNRFSGSKSGNTASLTISGLQAEDEADYYCSSYTTSSTRVFGGGTKLTVL
notes: human IgG1
B8: AB-009251 (antibody, V domains shown)
V domain 1: QVQLVQSGAEVKKPGASVKVSCKTSGYTFTTFYIHWVRQVPGQGLEWMGIINPDGGSTNYAQEFQARVTMTTDTSTSTAYMELSSLRFEDTAVFYCATSLGAPPGLSPRTGPQRRGPPGFDFWGQGTLITVSA
V domain 2: QSVLTQPPSVSGAPGQRVTISCTGSSSNIGAGYDVHWYQQLPGTAPKLLIFDNNNRPSGVPYRFSGSRSGTSASLAITGLQPEDEADYYCQSYDSSLSGRVFGGGTRVTVL
notes: human IgG1
B9: AB-009221 (antibody, V domains shown)
VH: EVQLVESGGGLVQPGGSLRLSCAASGFTVSSNYMSWVRQAPGKGLEWVSVIYSGGSTYYADSVKGRFTISRHNSKNTLYLQMNSLRAEDTAVYYCARDRNAFDIWGQGTMVIVSS
VL: DIQMTQSPSSLSASVGDRVSITCQASQDISNDLNWYQQKPGKAPKLLVYDASKLETGVPPRFSGSGSGTDFTFTISSLQPEDIATYYCQQYDNLPLYSFGQGTKLEIK
notes: human IgG1
B10: AB-009080 (antibody, V domains shown)
VH: QVQLQQWGAGLLKPSETLSLTCAVYGGSFSGYYWSWIRQPPGKGLEWIGEINHSGSTNYNPSLKSRVTISVDTSKNQFSLKLSSVTAADTAVYYCARGLPVTTFYYYYYGMDVWGQGTTVTVSS
VL: not shown
notes: human IgG1
B11: AB-009106 (antibody, V domains shown)
VH: QVQLAQSGAEVKRPGASVKVSCKASGFDLTTYGVGWVRQAPGQGLEWMGWISGSSGDTHYAQQFQDRVTMTTDTPTSTAYMELRSLRSDDTAVYYCVRENIAHYGSRTFLVRYYRGMDVWGQGTTVTVAS
VL: QSALTQPASVSGSPGQSITITCTGSSSDIGGFDFVSWYQQYPGKAPKLVISEVTNRPSGVSIRFSGSKSGNTASLTISGLQAEDEADYYCSSYASSYPTTNTRVFGTGTKVTVL
notes: human IgG1
B12: AB-009226 (antibody, V domains shown)
VH: not shown
VL: QSALTQPASVSGSPGQSITISCTGTSSDVGGYNYVSWYQQHPGKAPKLMIYEVSNRPSGVSNRFSGSKSGNTASLTISGLQAEDEADYYCSSYTSSSTLYVFGTGTKVTVL
notes: human IgG1
B13: AB-009083 (antibody, V domains shown)
VH: EVHLLESGGGLVQPGGSLTLTCAASGFSFGNYVMGWVRQAPGKGLEWVSSIFGSGANPHYGGSVKGRFTISRDNSQNTLFLQMDSLTAEDTAVYYCARDGGTMVGGIITGGFNYFDSWGQGTLVTVSS
VL: EIVLTQSPASLSLSPGGWATLSCRASRSIGNSLAWYQQRPGQAPRLLIYDASNRATGIPARFSGSGSGTDFTLTISSLEPEDFAIYYCQQRNSWPPLYTFGQGTKLEIK
notes: human IgG1
B14: AB-009110 (antibody, V domains shown)
VH: QVQLVQSGAEVKEPGASVKVSCNASGYIFTSYGISWVRQAPGQGLEWVGWISGNNGNTNYAQKFQGRVTLTTDTSTSTAYLELRSLTSADTGVYFCARARLPSAYWGPGTLLTVSS
VL: EILLTQSPATLSVSPGERGSLSCRASQSVGTNLAWYQQKPGQAPRLLIYGASARATGIPARFSGSGSGTEFTLTISSLQSEDFGVYYCQQYNDWPPWTFGQGTKVEIK
notes: human IgG1

The binders below were run against T1, SARS-CoV-2 S1 protein (SARS-CoV-2, UniProt P0DTC2 16-685) (assay: BLI).
T1 construct: domain: S1 protein; also called S1 monomer
B1: no binding (tested: 300 nM).
B2: no binding (tested: 300 nM).
B3: no binding (tested: 300 nM).
B4: no binding (tested: 300 nM).
B5: no binding (tested: 300 nM).
B6: no binding (tested: 300 nM).
B7: no binding (tested: 300 nM).

Each binder was assayed against T2, SARS-CoV-2 S2 protein (SARS-CoV-2, UniProt P0DTC2 686-1213) (assay: BLI).
T2 construct: domain: S2 protein; also called S2 monomer
B1: no binding (tested: 300 nM).
B8: no binding (tested: 300 nM).
B2: no binding (tested: 300 nM).
B3: no binding (tested: 300 nM).
B9: no binding (tested: 300 nM).
B5: no binding (tested: 300 nM).
B6: no binding (tested: 300 nM).
B7: no binding (tested: 300 nM).

What follows are binders tested against SARS-CoV-2 Nucleocapsid (N) protein (SARS-CoV-2, UniProt P0DTC9 1-419) (assay: BLI).
B1: no binding (tested: 300 nM).
B8: no binding (tested: 300 nM).
B2: no binding (tested: 300 nM).
B3: no binding (tested: 300 nM).
B9: no binding (tested: 300 nM).
B5: no binding (tested: 300 nM).
B6: no binding (tested: 300 nM).
B7: no binding (tested: 300 nM).

These binders were tested against T3, SARS-CoV-2 Receptor Binding Domain (RBD) (SARS-CoV-2, UniProt P0DTC2 319-541) (assay: BLI).
T3 construct: also called RBD protein
B4: no binding (tested: 300 nM).

These binders were tested against T4, SARS-CoV-2 Spike (S) trimer (SARS-CoV-2, UniProt P0DTC2 14-1208) (assay: ELISA, S trimer coated, 1:50 dilution).
T4 construct: also called Spike trimer
For B10, the “Optical Density (OD; 450 nm)” value was 0.166 OD450.
For B11, the “Optical Density (OD; 450 nm)” value was 0.1 OD450.
For B8, the “Optical Density (OD; 450 nm)” value was 0.886 OD450.
With B12 the “Optical Density (OD; 450 nm)” value was 2.33 OD450.
For B13, the “Optical Density (OD; 450 nm)” value was 0.249 OD450.
In the case of B14, the “Optical Density (OD; 450 nm)” value is reported as 0.081 OD450.

— patent US20240025971A1 (ATRECA, published 2024)
